Results published in article PMC11535432.

Target: inactive mutant of SARS-CoV-2 main protease M^pro (His41Ala, Cys145Ala) (SARS-CoV-2)
Assay: native MS

Substance	stoichiometry N (peptide per M^pro dimer)
substrate peptide nsp5/6 (11-mer, P6 to P5') (from UniProt P0DTD1 3564-3574)	< 2
substrate peptide nsp14/15 (11-mer, P6 to P5') (from UniProt P0DTD1 6447-6457)	< 2
